# Experimental data reported in article PMC7591906, “pHLIP ICG for delineation of tumors and blood flow during fluorescence-guided surgery” (Scientific Reports, 2020).
# Entries after “also recorded” stand apart in the source; their conditions may differ. Peptide text beside a SMILES is read from it. * marks the point of attachment. X1 = CC1(C)C(/C=C/C=C/C=C/C=C2/N(CCCCCC(=O)NCCN3C(=O)CC(*)C3=O)c3ccc4ccccc4c3C2(C)C)=[N+](CCCCS(=O)(=O)[O-])c2ccc3ccccc3c21
# Key:
# [1] = Follow up 7-days repeat i.v. toxicity in male B6D2F1 mice (GLP); assay type: in vivo
# Experimental: The purpose of this GLP study performed at MSK was to assess the acute and delayed toxicity on the male reproductive system of mice of a repeat administration of pHLIP ICG at different concentrations. The pHLIP ICG was administered once/day for 7 consecutive days.
# Throughout the study, body weights, clinical signs, and histopathology were collected.
# [2] = Peripheral blood micronucleus test in rats (GLP); assay type: in vivo, Sprague Dawley rats
# Experimental: The objective of this GLP study performed at CRL was to determine the potential genotoxicity of pHLIP ICG when given by i.v. bolus injection to rats using the peripheral blood micronucleus test.
# In order to determine the maximum tolerated dose, a dose-range finding test was performed prior to the main test, where male and female rats (3 animals/sex) were administered a single dose of pHLIP ICG by i.v. injection. The doses evaluated were 14 mg/kg and 25 mg/kg using 5% EtOH in PBS, pH 7.4 as the vehicle.
# Blood was collected for micronuclei evaluation at 45 hours post-dose (Groups 3 to 7), and 69 hours post-dose (Groups 3 and 7). The proportion of immature erythrocytes among total erythrocytes in the peripheral blood (%RETs) and the percentage of micronucleated reticulocytes (%MN-RETs) in the NC group were within the laboratory historical negative control range. […] The results from both NC and PC groups confirmed the validity of the assay.
# [3] = system: Salmonella typhimurium strains (TA1535, TA1537, TA98, TA100 and TA102); assay: In vitro bacterial reverse mutation test; assay type: cell-based; conditions: up to 5000 µg/plate, with and without S9 mix
# Experimental: The objective of this study performed at CRL was to determine the potential genotoxicity of pHLIP ICG using the bacterial reverse mutation test.
# Salmonella typhimurium strains (TA1535, TA1537, TA98, TA100 and TA102) were treated with pHLIP ICG at a range of concentrations up to 5000 µg/plate (the standard limit dose for this assay), in the presence and absence of a supplemented rat liver fraction (S9 mix), using the plate incorporation version of the bacterial reverse mutation test.
# Bacteria were incubated with standard positive controls, and the response of the various bacterial strains to these agents confirmed the sensitivity of the test system and the activity of the S9 mix.
# [4] = Single-dose and 7-days repeat i.v. toxicity with TK in Beagle dogs (GLP); assay type: in vivo; conditions: for AUC(0-t) / C0: 2.16 mg/kg, daily i.v. bolus 2.16 mg/kg
# Experimental: The objectives of this GLP study, performed at CRL, were to determine the potential toxicity of pHLIP ICG, when given by single dose i.v. injection or once daily (i.v. injections) for 7 days in dogs, and to evaluate the potential reversibility of any findings following the single dose injection. In addition, toxicokinetic characteristics of pHLIP ICG were examined.
# The following parameters and end points were evaluated in the study: mortality, clinical observations, body weights, food consumption, ophthalmology and electrocardiology assessments, clinical pathology parameters (hematology, coagulation, clinical chemistry, and urinalysis), toxicokinetic parameters, gross necropsy findings, organ weights, and histopathological examinations.
# [5] = Pharmacokinetics in Beagle dogs, single i.v. bolus injection; assay type: in vivo; conditions: male, dog, plasma, iv, mean
# Experimental: The objective of this study performed at CRL was to characterize the pharmacokinetic profile of pHLIP ICG in Beagle dogs following a single i.v. injection.
# Blood samples were collected at 5, 15, and 30 minutes, and 1, 2, 4, 6, 8, 12, 24, and 48 hours post-dose for pharmacokinetic evaluation. Samples were placed on crushed wet ice until centrifugation, which was carried out immediately. The samples were centrifuged as per standard procedures. An aliquot of 250 µL of the resultant plasma was separated, transferred to 2.0 mL low-bind tubes containing 1.25 mL of methanol, mixed and frozen immediately over dry ice and transferred to a freezer at -80°C. At the time of analysis, samples were thawed, extracted, and analyzed via LC-MS/MS according to the validated protocol using pHLIPIS.
# [6] = Stability of pHLIP ICG formulations in solution (analytical HPLC); assay type: physicochemical; conditions: protected from light
# Experimental: Stability studies were performed with pHLIP ICG formulations in PBS and PBS containing 5% DMSO or 5% Ethanol (vol/vol). The tumor targeting capability in mice is independent of formulation. Formulation of pHLIP ICG in PBS/5% Ethanol was used in PoC animal studies, and in toxicity studies on mice, rats and dogs. For the PBS/5%DMSO formulation 1 mg of the lyophilized powder of pHLIP ICG was dissolved in 75 µl of DMSO (to make 3.2 mM solution), then 10 µl of 3.2 mM stock was mixed with 190 µl PBS to make a 0.16 mM solution of pHLIP ICG (5% DMSO). For the PBS/5%Ethanol formulation, the lyophilized powder of pHLIP ICG was dissolved at a concentration of 1.6 mg/ml in PBS/5% Ethanol solution. Finally, the formulation selected for human use was prepared by dissolving the lyophilized powder of pHLIP ICG at a concentration of 0.8 mg/ml in PBS. All formulations were kept at room temperature and protected from light. The aliquots were taken at 0.5 or 1, 3, 6, 24, 48 and 72 hours (102 hrs for pHLIP ICG dissolved in PBS) for analytical HPLC analysis using a Zorbax SB-C18 column (4.6 x 250 mm, 5 µm) with a binary solvent system using a […] water and acetonitrile gradient with 0.05% TFA over 25 min. […] Formulation of pHLIP ICG in PBS was stable in solution for 4 days kept at RT.
# [7] = male rats, single i.v. 6.25, 12.5 and 25 mg/kg
smiles,measurement,setting,value
CC(C)C[C@H](NC(=O)[C@H](Cc1ccc(O)cc1)NC(=O)[C@H](C)NC(=O)[C@H](CCCNC(=N)N)NC(=O)[C@H](Cc1c[nH]c2ccccc12)NC(=O)[C@@H]1CCCN1C(=O)[C@H](CC(N)=O)NC(=O)[C@H](CCC(N)=O)NC(=O)[C@H](CC(=O)O)NC(=O)[C@H](CC(=O)O)NC(=O)[C@H](CSC1CC(=O)N(CCNC(=O)CCCCCN2/C(=C/C=C/C=C/C=C/C3=[N+](CCCCS(=O)(=O)[O-])c4ccc5ccccc5c4C3(C)C)C(C)(C)c3c2ccc2ccccc32)C1=O)NC(=O)[C@H](C)N)C(=O)N[C@@H](CC(=O)O)C(=O)N[C@@H](CC(C)C)C(=O)N[C@@H](CC(C)C)C(=O)N[C@@H](Cc1ccccc1)C(=O)N1CCC[C@H]1C(=O)N[C@H](C(=O)N[C@@H](CC(=O)O)C(=O)N[C@H](C(=O)N[C@@H](CC(C)C)C(=O)N[C@@H](CC(C)C)C(=O)N[C@@H](CC(C)C)C(=O)N[C@@H](CC(=O)O)C(=O)N[C@@H](CC(C)C)C(=O)N[C@@H](CC(C)C)C(=O)N[C@@H](Cc1c[nH]c2ccccc12)C(=O)N[C@@H](C)C(=O)O)[C@@H](C)O)[C@@H](C)O (some centres unmarked) [pHLIP ICG] (H-AC(X1)DDQNPWRAYLDLLFPTDTLLLDLLWA-OH),"Toxicity finding, male reproductive system","[1]; male B6D2F1 mice, 4.92, 7.38, 12.3 mg/kg/day i.v. for 7 days","well tolerated, with no indication of germ cell degeneration or other toxicity to the male reproductive system"
same,NOAEL,"[1]; male and female mice, 7 days repeated i.v. administration",above 12.3 mg/kg/day
same,Genotoxic activity (%MN-RETs),[2]; [7],did not induce cytogenetic damage; also recorded: showed no evidence of genotoxic activity
same,Reduction in %RETs (cytotoxicity),[2]; [7],No substantial reduction
same,Clinical signs in dose-range finding test,"[2]; rats 3 animals/sex, single i.v. 14 mg/kg and 25 mg/kg",no adverse clinical signs were noted
same,Toxicity to the bacteria,[3],non-toxic to the bacteria at the levels tested
same,"Mutagenicity, revertant colonies",[3]; plate incorporation,did not show any evidence of genotoxic activity; also recorded: negative for the induction of mutagenicity
same,Clinical chemistry changes,"[4]; 2.16 mg/kg/day i.v. for 7 days, males and females, non-adverse",minimal decreases in cholesterol
same,AUC(0-t),"[4]; Beagle, dog, in vivo, iv, mean, read-out: AUCTlast, day 1",65400 ng·h/mL
same,AUC(0-t),"[4]; Beagle, dog, in vivo, iv, mean, read-out: AUCTlast, day 7",72300 ng·h/mL
same,C0,"[4]; Beagle, dog, in vivo, iv, mean, read-out: C0, day 1",38400 ng/mL
same,C0,"[4]; Beagle, dog, in vivo, iv, mean, read-out: C0, day 7",42700 ng/mL
same,Cmax,"[4]; both sexes, Beagle, dog, in vivo, iv, 2.16 mg/kg/day for 7 days, mean, males and females, read-out: Cmax at NOAEL",40300 ng/mL
same,NOAEL,"[4]; males and females, 7 days repeated i.v. administration",above 2.16 mg/kg/day
same,Overall toxicity finding,"[4]; single i.v. bolus 0.063, 1.08, 2.16 mg/kg or once daily for 7 days at 2.16 mg/kg/day",did not adversely affect the overall health or condition of the animals
same,clearance,"[5]; single i.v. 0.064 mg/kg, read-out: Clearance (Cl) (converted)",0.193 mL/min/kg
same,half-life,"[5]; single i.v. 0.064 mg/kg, read-out: Elimination half-time (T1/2) (converted)",3.7 h
same,Vd,"[5]; single i.v. 0.064 mg/kg, read-out: Volume of distribution (Vz)",0.0616 L/kg
same,AUC(0-inf),[5]; single i.v. bolus 0.064 mg/kg,5550 ng·h/mL
same,C0,"[5]; single i.v. bolus 0.064 mg/kg, 3 males, read-out: C0 (theoretical concentration at time zero)",1410 ng/mL
same,AUC(0-t),"[5]; single i.v. bolus 0.064 mg/kg, read-out: AUC0-48hr",5450 ng·h/mL
same,Stability (purity) of all formulations,"[6]; PBS, PBS/5% DMSO, PBS/5% Ethanol, up to 72 hours at room temperature, analytical HPLC",> 95%
same,Time stable in solution,"[6]; reconstituted in PBS (0.8 mg/ml), room temperature, analytical HPLC Zorbax SB-C18",4 days
